Key:
Hot1 [1] = molecular target: T1, Hot1 (Saccharomyces cerevisiae BY4741, UniProt Q03213 1-719); assay: EMSA
T1 sequence: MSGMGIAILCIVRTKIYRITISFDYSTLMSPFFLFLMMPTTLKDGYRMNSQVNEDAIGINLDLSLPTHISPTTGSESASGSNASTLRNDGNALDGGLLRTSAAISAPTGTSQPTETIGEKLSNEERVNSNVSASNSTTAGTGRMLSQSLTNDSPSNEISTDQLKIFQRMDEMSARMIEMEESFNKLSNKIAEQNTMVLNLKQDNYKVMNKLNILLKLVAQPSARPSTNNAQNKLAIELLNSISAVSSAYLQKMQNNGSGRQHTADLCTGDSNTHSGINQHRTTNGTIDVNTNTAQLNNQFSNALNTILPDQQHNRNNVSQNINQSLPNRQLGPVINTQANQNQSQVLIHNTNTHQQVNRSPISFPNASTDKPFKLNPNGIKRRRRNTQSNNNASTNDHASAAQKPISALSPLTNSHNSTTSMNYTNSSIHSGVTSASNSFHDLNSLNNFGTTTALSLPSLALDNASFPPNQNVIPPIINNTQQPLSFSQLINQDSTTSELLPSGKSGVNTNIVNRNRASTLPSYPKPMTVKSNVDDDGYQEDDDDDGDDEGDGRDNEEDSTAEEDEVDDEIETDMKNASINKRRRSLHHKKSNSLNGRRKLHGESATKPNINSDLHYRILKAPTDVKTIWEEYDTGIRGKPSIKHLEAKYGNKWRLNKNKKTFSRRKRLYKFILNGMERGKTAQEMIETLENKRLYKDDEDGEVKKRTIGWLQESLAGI

Hot1 [2] = molecular target: T1, Hot1; assay: competition

B1: STL1 promoter HoRE, E6 probe (dsDNA)
DNA 1: CTATTCCACCGCATTTGGCCCATTTGGCTCACTTTGACTCAACTTGCGTCATTTTAACTGATATG
DNA 2: CATATCAGTTAAAATGACGCAAGTTGAGTCAAAGTGAGCCAAATGGGCCAAATGCGGTGGAATAG
Hot1 [1]
  binding result: binds

B2: RM9 (E6 with mutated HoRE repeats) (dsDNA)
DNA 1: CTATTCCACCGCATCTGGTCCATCTGGTTCACTCTGATTCAACTTGCGTCATTTTAACTGATATG
DNA 2: CATATCAGTTAAAATGACGCAAGTTGAATCAGAGTGAACCAGATGGACCAGATGCGGTGGAATAG
Hot1 [2]
  binding result: no binding

— article PMC4462951
